Measured values taken from patent US20120165265A1, “Calcium Signaling Modulators Involving STIM and ORAI Proteins” (priority 2009, published 2012).

Tests used:
CRAC channels = molecular target: T1, CRAC channels (Homo sapiens, UniProt Q96D31); assay: [Ca2+]i imaging in HEK 293 cells expressing STIM1 fragment and Orai1; type: cell-based; conditions: HEK 293 cells coexpressing construct and Orai1, no store depletion
T1 construct: expressed in transfected cells; host or cells: HEK 293
Description: Ca^2+ Imaging. For FIG. 2, cells were loaded at 37° C. in DMEM with 1 μM fura-2/AM for 30 min. Ratiometric Ca2+ imaging was performed at 340 and 380 nm in 2 mM Ca2+ Ringer's solution with a Nikon Eclipse 2000-U inverted microscope equipped with a fluorescent arc lamp, excitation filter wheel, and a Hamamatsu Orca CCD camera. Images were collected using Openlab (Improvision) and analyzed using Igor Pro.
To determine if CAD activates store operated Ca^2+ influx in cells, we measured [Ca^2+]i in HEK 293 cells expressing CAD and Orai1.

Orai1 [1] = molecular target: T2, Orai1 (Homo sapiens, UniProt Q96D31); assay: Yeast split ubiquitin interaction assay, CAD with Orai1; type: binding; conditions: NubG-Orai1 and CAD-Cub-LV in yeast
T2 sequence (Q96D31 whole entry): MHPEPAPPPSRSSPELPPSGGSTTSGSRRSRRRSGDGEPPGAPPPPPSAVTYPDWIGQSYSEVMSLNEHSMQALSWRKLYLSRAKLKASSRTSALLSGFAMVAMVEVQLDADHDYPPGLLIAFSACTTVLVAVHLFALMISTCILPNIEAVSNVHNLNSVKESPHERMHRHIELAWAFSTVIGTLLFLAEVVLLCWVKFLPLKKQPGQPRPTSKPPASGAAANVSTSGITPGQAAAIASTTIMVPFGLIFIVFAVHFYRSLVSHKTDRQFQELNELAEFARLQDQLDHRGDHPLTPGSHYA
Description: Split-Ubiquitin Yeast Two Hybrid Assay. Screening was performed according to the manufacturer's instructions (Dualsystems Biotech). Transformed yeast were selected on media lacking Trp and Leu (-TL). Interaction was observed by cell growth on plates lacking Trp, Leu, and His (TLH) in the presence of 3-aminotriazole (3-AT). Protein interactions were also assessed by measuring lacZ activity using the chromogenic substrate X-gal (5-bromo-4-chloro-3-indolyl-β-galactopyranoside).
Split-Ubiquitin Yeast Two Hybrid Assay. To generate fusion proteins with the N-terminal half of ubiquitin (Nub), full-length or fragments of Orai1 were amplified by PCR and cloned into the pDL2-Nubx vector (Dualsystems Biotech). The Nub sequence in the pDL2-Nubx plasmid contains a point mutation (NubG) that abolishes the spontaneous association of Nub to the C-terminal half of ubiquitin (Cub). The CAD was subcloned into the pAMBV4 vector, which contains Cub fused to a chimeric transcription factor consisting of the DNA binding domain from LexA and the VP16 transactivation domain.
As a third test for association of CAD and Orai1 in vivo, and to map the interaction domains of Orai1 we introduced both proteins into a yeast split ubiquitin interaction system. […]

Orai1 [2] = molecular target: T2, Orai1; assay: Co-immunoprecipitation with Orai1 in HEK 293T cells; type: binding; design: expressed in transfected cells; host or cells: HEK 293; conditions: 150 mM salt, 1% Triton X-100
Description: Immunoprecipitation and Immunoblot Analysis. Transfected HEK 293T cells (12-24 h) were washed with PBS and lysed in 50 mM Tris-HCl pH 7.5, 150 mM NaCl, 1% Triton X-100, and protease inhibitors. Lysates were spun at 12,000 rpm for 10 min, and the supernatant was incubated with anti-Flag M2 agarose beads (Sigma), or anti-myc or -HA antibody followed by IgG agarose beads (Pierce). Lysates and immunoprecipitates were subjected to SDS-PAGE, probed with HRP-conjugated secondary antibody and detected by enhanced chemiluminescence (Pierce).
CAD Associates with Orai1 in vivo and in vitro. Because cytosolic CAD is a potent activator of Orai1 channels and is not associated with the ER, we hypothesized that CAD binds to Orai1. To test this idea, we first expressed YFP-CAD with or without myc-Orai1 in HEK 293 cells and examined its intracellular localization. […] To provide additional evidence that CAD and Orai1 are part of the same protein complex we expressed Flag-tagged CAD and GFP-tagged Orai1 in HEK 293T cells and immunoprecipitated CAD with anti-Flag antibodies. GFP-myc-Orai1 was detected in the immunoprecipitates from cells co-expressing CAD and Orai1 but not from cells expressing CAD or Orai1 alone (FIG. 3B).
Thus, CAD and Orai1 form a protein complex in mammalian cells.

[3] = molecular target: T3, Orai1-ΔN, Orai1-ΔC, Orai1-ΔN73 (Homo sapiens, UniProt Q96D31); assay: Whole-cell recording of ICRAC with truncated Orai1 and CAD; type: cell-based; conditions: cells expressing Orai1-ΔN73
T3 construct: expressed in transfected cells; host or cells: HEK 293
T3 sequence (Q96D31 74-301): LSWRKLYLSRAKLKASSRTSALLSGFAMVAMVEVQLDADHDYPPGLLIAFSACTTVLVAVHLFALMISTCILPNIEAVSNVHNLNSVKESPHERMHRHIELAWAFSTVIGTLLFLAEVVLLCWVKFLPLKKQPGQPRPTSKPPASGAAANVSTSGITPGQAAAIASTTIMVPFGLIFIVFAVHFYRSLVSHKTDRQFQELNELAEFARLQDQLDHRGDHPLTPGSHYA
Description: Electrophysiology. HEK 293 cells were transfected 8-24 h prior to electrophysiology experiments with STIM1- and Orai1-derived constructs in a 1:1 mass ratio using Lipofectamine 2000. […] ICRAC in cells cultured without LaCl3 was similar to that in cells cultured with LaCl3, but most cells without LaCl3 died soon after break-in.
Currents were recorded using standard whole-cell patch clamp techniques (Prakriya and Lewis, 2001). Pipettes of resistance 2-5 MΩ were filled with an internal solution containing (in mM) 150 Cs aspartate, 8 MgCl2, 10 EGTA, and 10 HEPES (pH 7.2 with CsOH). Currents were sampled at 5 kHz and filtered at 2 kHz, and all voltages were corrected for the junction potential of the pipette solution relative to Ringer's in the bath (−13 mV).
Patch-clamp Experiments. Pipette-membrane seals were formed in 2 mM Ca^2+ Ringer's solution. After break-in to the whole-cell configuration, voltage stimuli consisting of a 100-ms step to −100 mV followed by a 100-ms ramp from −100 to +100 mV were delivered every 5 s from the holding potential of +30 mV. After the currents reached a steady level (˜300 s for wild-type STIM1), the external solution was changed via a multibarrel local perfusion pipette to a high-Ca^2+ Ringer's containing (in mM) 130 NaCl, 4.5 KCl, 20 CaCl2, 1 MgCl2, 10 D-glucose, and 5 HEPES (pH 7.4 with NaOH). […]

T1 sequence (Q96D31 whole entry, the tested form may be a part): as the sequence (Q96D31 whole entry) above

## CAD: 107-residue CRAC activation domain within the C-terminus of STIM1 (aa 342-448), SEQ ID NO:1
CRAC channels
  [Ca2+]i / CRAC channel activation: sustained [Ca^2+]i elevation
Orai1 [1]
  interaction with Orai1 (growth on His selection, b-gal): interact with each other
Orai1 [2]
  co-immunoprecipitation with Orai1: co-immunoprecipitates with Orai1
[3]
  constitutive ICRAC activation: constitutively activated ICRAC
